# Reference: the supplement of paper PMC9112550, “Optimization of the antimicrobial peptide Bac7 by deep mutational scanning” (BMC Biology, 2022)
# System: Escherichia coli TOP10
# Assay: shrunken log2 fold change of peptide-encoding DNA abundance (4.5 h post-induction vs induction); higher = less antimicrobial activity (less host growth inhibition)
# Details: time post-induction: 4.5 h; library: site-saturation at positions 5, 18, 19, 20
# 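Further: peptides expressed intracellularly from a pBAD plasmid library in pooled LB shake-flask culture, induced with 0.3% L-arabinose, DNA abundance read by NGS, three biological replicates, DESeq2 with apeglm shrinkage.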
row,Sequence,shrunken log2 fold change
1,RRIRMRPPRLPRPRPRPINSPRP,-0.142
2,RRIRQRPPRLPRPRPRPQRTPRP,0.0128
3,RRIRPRPPRLPRPRPRPQTAPRP,0.111
4,RRIRGRPPRLPRPRPRPPFQPRP,0.358
5,RRIRIRPPRLPRPRPRPFKMPRP,-0.568
6,RRIRRRPPRLPRPRPRPNMAPRP,0.0119
7,RRIRKRPPRLPRPRPRPMNRPRP,-0.029
8,RRIRLRPPRLPRPRPRPCPLPRP,-0.333
9,RRIRCRPPRLPRPRPRPPNMPRP,-0.302
10,RRIRIRPPRLPRPRPRPRYPPRP,-0.0444
11,RRIRPRPPRLPRPRPRPWDNPRP,-0.00581
12,RRIRMRPPRLPRPRPRPPLWPRP,1.31
13,RRIRTRPPRLPRPRPRPVLFPRP,-0.193
14,RRIRNRPPRLPRPRPRPILTPRP,-0.135
15,RRIRYRPPRLPRPRPRPSQMPRP,-0.706
16,RRIRYRPPRLPRPRPRPFEMPRP,-0.738
17,RRIRRRPPRLPRPRPRPWGAPRP,0.483
18,RRIRSRPPRLPRPRPRPMHPPRP,-0.0546
19,RRIRIRPPRLPRPRPRPFAQPRP,-0.108
20,RRIRARPPRLPRPRPRPCLWPRP,-0.199
21,RRIRPRPPRLPRPRPRPLQCPRP,-1.25
22,RRIRLRPPRLPRPRPRPGCIPRP,-0.346
23,RRIRRRPPRLPRPRPRPTADPRP,0.808
24,RRIRPRPPRLPRPRPRPKNIPRP,-0.719
25,RRIRSRPPRLPRPRPRPVYNPRP,-0.974

row,Sequence,shrunken log2 fold change
1,RRIRMRPPRLPRPRPRPLQPPRP,0.737
2,RRIRGRPPRLPRPRPRPFLQPRP,0.231
3,RRIRERPPRLPRPRPRPKNKPRP,-0.559
4,RRIRCRPPRLPRPRPRPMPWPRP,0.0515
5,RRIRGRPPRLPRPRPRPHINPRP,0.214
6,RRIRLRPPRLPRPRPRPSDPPRP,-0.0539
7,RRIRDRPPRLPRPRPRPVGWPRP,0.945
8,RRIRFRPPRLPRPRPRPLWEPRP,-0.12
9,RRIRCRPPRLPRPRPRPYLEPRP,-0.208
10,RRIRNRPPRLPRPRPRPVMHPRP,0.077
11,RRIRCRPPRLPRPRPRPEQYPRP,-0.322
12,RRIRRRPPRLPRPRPRPPTEPRP,0.315
13,RRIRARPPRLPRPRPRPKCFPRP,-0.0172
14,RRIRMRPPRLPRPRPRPPLLPRP,0.515
15,RRIRSRPPRLPRPRPRPAQPPRP,0.181
16,RRIRCRPPRLPRPRPRPWGRPRP,-0.118
17,RRIRFRPPRLPRPRPRPPPGPRP,1.34
18,RRIRARPPRLPRPRPRPLWQPRP,0.136
19,RRIRTRPPRLPRPRPRPFQQPRP,0.0654
20,RRIRNRPPRLPRPRPRPNFTPRP,-0.197
21,RRIRDRPPRLPRPRPRPDSIPRP,0.0726
22,RRIRLRPPRLPRPRPRPEANPRP,0.075
23,RRIRIRPPRLPRPRPRPAEKPRP,-0.213
24,RRIRYRPPRLPRPRPRPLSQPRP,0.0967
25,RRIRYRPPRLPRPRPRPLMRPRP,-0.0447

row,Sequence,shrunken log2 fold change
1,RRIRQRPPRLPRPRPRPLRVPRP,0.298
2,RRIRIRPPRLPRPRPRPVIRPRP,0.00816
3,RRIRHRPPRLPRPRPRPKVSPRP,-0.112
4,RRIRMRPPRLPRPRPRPIKTPRP,-0.0802
5,RRIRNRPPRLPRPRPRPVAWPRP,-0.01
6,RRIRPRPPRLPRPRPRPEQLPRP,0.0838
7,RRIRWRPPRLPRPRPRPMTEPRP,0.804
8,RRIRMRPPRLPRPRPRPIDHPRP,0.0383
9,RRIRDRPPRLPRPRPRPEMMPRP,0.71
10,RRIRPRPPRLPRPRPRPFARPRP,0.206
11,RRIRRRPPRLPRPRPRPKTPPRP,0.782
12,RRIRWRPPRLPRPRPRPLMMPRP,0.0198
13,RRIRNRPPRLPRPRPRPTQPPRP,0.6
14,RRIRMRPPRLPRPRPRPSGWPRP,0.934
15,RRIRPRPPRLPRPRPRPGGFPRP,0.318
16,RRIRERPPRLPRPRPRPNQSPRP,-0.236
17,RRIRERPPRLPRPRPRPQHFPRP,0.131
18,RRIRIRPPRLPRPRPRPWGRPRP,-0.239
19,RRIRTRPPRLPRPRPRPYTKPRP,-0.248
20,RRIRGRPPRLPRPRPRPLLHPRP,0.762
21,RRIRKRPPRLPRPRPRPIRKPRP,0.092
22,RRIRIRPPRLPRPRPRPMVYPRP,-0.136
23,RRIRLRPPRLPRPRPRPTCMPRP,-0.228
24,RRIRCRPPRLPRPRPRPEMFPRP,0.00455
25,RRIRLRPPRLPRPRPRPLAEPRP,0.289

row,Sequence,shrunken log2 fold change
1,RRIRERPPRLPRPRPRPQRAPRP,0.254
2,RRIRCRPPRLPRPRPRPHPLPRP,0.989
3,RRIRPRPPRLPRPRPRPKNVPRP,-0.169
4,RRIRDRPPRLPRPRPRPLKCPRP,0.055
5,RRIRWRPPRLPRPRPRPAQIPRP,0.0333
6,RRIRGRPPRLPRPRPRPCPFPRP,-0.218
7,RRIRERPPRLPRPRPRPPSGPRP,0.275
8,RRIRFRPPRLPRPRPRPGLMPRP,-0.125
9,RRIRERPPRLPRPRPRPQGDPRP,-0.0405
10,RRIRTRPPRLPRPRPRPAHPPRP,0.396
11,RRIRYRPPRLPRPRPRPDYPPRP,-0.14
12,RRIRLRPPRLPRPRPRPQTRPRP,0.08
13,RRIRIRPPRLPRPRPRPHIWPRP,-0.582
14,RRIRHRPPRLPRPRPRPLIIPRP,-0.377
15,RRIRWRPPRLPRPRPRPPPNPRP,0.928
16,RRIRYRPPRLPRPRPRPYCCPRP,-0.145
17,RRIRKRPPRLPRPRPRPYHQPRP,-0.231
18,RRIRARPPRLPRPRPRPSSNPRP,1.2
19,RRIRVRPPRLPRPRPRPDVAPRP,-0.0974
20,RRIRMRPPRLPRPRPRPPVFPRP,0.704
21,RRIRSRPPRLPRPRPRPDAMPRP,0.83
22,RRIRVRPPRLPRPRPRPLPMPRP,0.0885
23,RRIRNRPPRLPRPRPRPFCEPRP,-0.28
24,RRIRWRPPRLPRPRPRPWMHPRP,-0.0548
25,RRIRFRPPRLPRPRPRPRWDPRP,0.284

row,Sequence,shrunken log2 fold change
1,RRIRTRPPRLPRPRPRPTHVPRP,0.122
2,RRIRCRPPRLPRPRPRPQREPRP,-0.0986
3,RRIRWRPPRLPRPRPRPEKTPRP,0.191
4,RRIRQRPPRLPRPRPRPQKLPRP,-0.0725
5,RRIRERPPRLPRPRPRPMRRPRP,-0.0292
6,RRIRPRPPRLPRPRPRPIDKPRP,-0.188
7,RRIRNRPPRLPRPRPRPKVSPRP,0.264
8,RRIRYRPPRLPRPRPRPKTIPRP,-0.421
9,RRIRDRPPRLPRPRPRPYNIPRP,-0.529
10,RRIRPRPPRLPRPRPRPTDDPRP,-0.392
11,RRIRMRPPRLPRPRPRPCWRPRP,0.14
12,RRIRNRPPRLPRPRPRPMSMPRP,-0.0143
13,RRIRARPPRLPRPRPRPCYHPRP,-0.0657
14,RRIRGRPPRLPRPRPRPCRAPRP,0.495
15,RRIRLRPPRLPRPRPRPFPNPRP,0.203
16,RRIRARPPRLPRPRPRPKWAPRP,0.688
17,RRIRNRPPRLPRPRPRPCCFPRP,-0.278
18,RRIRHRPPRLPRPRPRPDDKPRP,-0.359
19,RRIRNRPPRLPRPRPRPTMCPRP,-0.0233
20,RRIRERPPRLPRPRPRPNMSPRP,-0.179
21,RRIRCRPPRLPRPRPRPVFTPRP,-0.211
22,RRIRVRPPRLPRPRPRPQHVPRP,-0.0853
23,RRIRYRPPRLPRPRPRPSPAPRP,0.156
24,RRIRHRPPRLPRPRPRPQRMPRP,-0.16
25,RRIRERPPRLPRPRPRPSSIPRP,-0.855

row,Sequence,shrunken log2 fold change
1,RRIRKRPPRLPRPRPRPYNEPRP,-0.254
2,RRIRSRPPRLPRPRPRPDCKPRP,-0.0745
3,RRIRFRPPRLPRPRPRPEKIPRP,0.102
4,RRIRMRPPRLPRPRPRPSQQPRP,0.463
5,RRIRYRPPRLPRPRPRPRSDPRP,-0.113
6,RRIRNRPPRLPRPRPRPIQCPRP,-0.01
7,RRIRGRPPRLPRPRPRPICDPRP,0.717
8,RRIRPRPPRLPRPRPRPNKTPRP,-0.0733
9,RRIRRRPPRLPRPRPRPADQPRP,0.0865
10,RRIRYRPPRLPRPRPRPFLYPRP,-0.881
11,RRIRQRPPRLPRPRPRPIKSPRP,-0.117
12,RRIRWRPPRLPRPRPRPARAPRP,0.563
13,RRIRRRPPRLPRPRPRPTPYPRP,0.545
14,RRIRCRPPRLPRPRPRPYLCPRP,-0.455
15,RRIRDRPPRLPRPRPRPAIGPRP,0.325
16,RRIRARPPRLPRPRPRPFARPRP,-0.0584
17,RRIRVRPPRLPRPRPRPLYTPRP,-0.345
18,RRIRERPPRLPRPRPRPYPIPRP,0.113
19,RRIRCRPPRLPRPRPRPTPKPRP,0.877
20,RRIRQRPPRLPRPRPRPAECPRP,0.17
21,RRIRERPPRLPRPRPRPQCIPRP,0.0341
22,RRIRQRPPRLPRPRPRPVRRPRP,-0.00994
23,RRIRFRPPRLPRPRPRPNTKPRP,-0.323
24,RRIRHRPPRLPRPRPRPQFCPRP,-0.208
25,RRIRVRPPRLPRPRPRPVDKPRP,-0.278
